In IntAct's records for PubMed 18547396:

B1: Protein TIFY 7 (Arabidopsis thaliana (Mouse-ear cress)), Q8W4J8 (parent)
chain: MERDFLGLSDKQYLSNNVKHEVNDDAVEERGLSTKAAREWGKSKVFATSSFMPSSDFQEAKAFPGAYQWGSVSAANVFRRCQFGGAFQNATPLLLGGSVPLPTHPSLVPRVASSGSSPQLTIFYGGTISVFNDISPDKAQAIMLCAGNGLKGETGDSKPVREAERMYGKQIHNTAATSSSSATHTDNFSRCRDTPVAATNAMSMIESFNAAPRNMIPSVPQARKASLARFLEKRKERLMSAMPYKKMLLDLSTGESSGMNYSSTSPT
partner: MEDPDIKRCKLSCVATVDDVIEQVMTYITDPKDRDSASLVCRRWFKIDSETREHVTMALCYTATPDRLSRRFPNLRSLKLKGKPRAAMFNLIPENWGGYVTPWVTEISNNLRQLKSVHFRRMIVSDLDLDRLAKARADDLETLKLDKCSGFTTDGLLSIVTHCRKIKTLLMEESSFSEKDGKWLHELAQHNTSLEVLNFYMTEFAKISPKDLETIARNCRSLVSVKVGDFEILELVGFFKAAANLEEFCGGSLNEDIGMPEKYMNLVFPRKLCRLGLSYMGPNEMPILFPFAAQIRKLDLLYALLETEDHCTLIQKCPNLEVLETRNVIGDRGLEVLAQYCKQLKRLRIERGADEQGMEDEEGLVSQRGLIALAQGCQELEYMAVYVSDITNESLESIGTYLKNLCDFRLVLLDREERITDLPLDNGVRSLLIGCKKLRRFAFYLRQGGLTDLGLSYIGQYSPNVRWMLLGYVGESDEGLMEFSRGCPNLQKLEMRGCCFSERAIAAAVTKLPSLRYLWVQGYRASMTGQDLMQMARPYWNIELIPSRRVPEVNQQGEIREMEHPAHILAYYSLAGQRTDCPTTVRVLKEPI
B2: Protein TIFY 10A (Arabidopsis thaliana (Mouse-ear cress)), Q9LMA8 (parent)
chain: MSSSMECSEFVGSRRFTGKKPSFSQTCSRLSQYLKENGSFGDLSLGMACKPDVNGTLGNSRQPTTTMSLFPCEASNMDSMVQDVKPTNLFPRQPSFSSSSSSLPKEDVLKMTQTTRSVKPESQTAPLTIFYAGQVIVFNDFSAEKAKEVINLASKGTANSLAKNQTDIRSNIATIANQVPHPRKTTTQEPIQSSPTPLTELPIARRASLHRFLEKRKDRVTSKAPYQLCDPAKASSNPQTTGNMSWLGLAAEI
partner: B1 partner

Variants of: B1
Conditions: with coi1_arath COI1, O04197

Variant | effect of a mutation on the interaction
K224A | disrupting interaction
R223A | disrupting interaction
R223A;K224A | disrupting interaction

Variants of: B2
Conditions: with coi1_arath COI1, O04197

Variant | effect of a mutation on the interaction
R206A | disrupting interaction
R205A;R206A | disrupting interaction
R205A | disrupting interaction
